The test system of data set [1] is T-REx-293 cells. Nature of the data set: Cell surface expression by confocal microscopy. The data set is classed as cell-based. Further details: key: *: low expression; **: as wild-type SERT; ***: higher expression than wild-type SERT. The conditions noted are these: estimation by eye of fluorescence upon confocal microscopy.
Data set [2] concerns T-REx-293 cells. Description: Expression level of SERT-mCherry mutants transiently transfected into T-REx-293 cells. The data set is classed as cell-based. The conditions noted are these: relative to wild-type SERT = 100%; transient transfection. The method, then: (FIG. 3A) Comparison of [^125I]-RTI55 bound to 554 detergent-solubilised Ala/Leu mutants at either 4° C. or after heating at 30° C. for 30 minutes. The data relating to thermostability (the heated samples) have been normalized to the amount of wild-type SERT remaining after heating (40%; horizontal dashed line). The expression level of wild-type SERT is indicated by the vertical dashed line and the grey column (0-200 dpm) represents non-specific binding of [^125I]-RTI55 to the parental T-REx-HEK293 cell line (no SERT). Each data point represents binding to the equivalent of 50,000 cells measured in duplicate (estimated error is ±20% in dpm). […] (FIG. 3C) Amino acid sequence of SERT (SEQ ID NO: 1) showing the positions of the thermostabilising mutations (hatched) that consistently gave >1° C. increase in Tm compared to wild-type SERT; residues in bold and hatched were used to stabilize either SAH6 and/or SAH7. N-linked glycosylation sites are indicated by the hexagons, a putative disulphide bond is shown as a grey line and the N-terminal and C-terminal fusion partners are shown (c-Myc tag and the fluorescent reporter protein mCherry) are indicated.

B1: L99A: rat SERT single mutant L99A (protein)
chain: METTPLNSQKVLSECKDREDCQENGVLQKGVPTTADRAEPSQISNGYSAVPSTSAGDEASHSIPAATTTLVAEIRQGERETWGKKMDFLLSVIGYAVDAGNIWRFPYICYQNGGGAFLLPYTIMAIFGGIPLFYMELALGQYHRNGCISIWRKICPIFKGIGYAICIIAFYIASYYNTIIAWALYYLISSLTDRLPWTSCTNSWNTGNCTNYFAQDNITWTLHSTSPAEEFYLRHVLQIHQSKGLQDLGTISWQLTLCIVLIFTVIYFSIWKGVKTSGKVVWVTATFPYIVLSVLLVRGATLPGAWRGVVFYLKPNWQKLLETGVWVDAAAQIFFSLGPGFGVLLAFASYNKFNNNCYQDALVTSVVNCMTSFVSGFVIFTVLGYMAEMRNEDVSEVAKDAGPSLLFITYAEAIANMPASTFFAIIFFLMLITLGLDSTFAGLEGVITAVLDEFPHIWAKRREWFVLIVVITCVLGSLLTLTSGGAYVVTLLEEYATGPAVLTVALIEAVAVSWFYGITQFCSDVKEMLGFSPGWFWRICWVAISPLFLLFIICSFLMSPPQLRLFQYNYPHWSIVLGYCIGMSSVICIPTYIIYRLISTPGTLKERIIKSITPETPTEIPCGDIRMNAV
With B1, in data set [1], the Cell surface expression entry is on record as “**”. In addition, the “Expression (%) SERT = 100%” value in data set [2] is 131%.

B2: G278A: rat SERT single mutant G278A (protein)
chain: METTPLNSQKVLSECKDREDCQENGVLQKGVPTTADRAEPSQISNGYSAVPSTSAGDEASHSIPAATTTLVAEIRQGERETWGKKMDFLLSVIGYAVDLGNIWRFPYICYQNGGGAFLLPYTIMAIFGGIPLFYMELALGQYHRNGCISIWRKICPIFKGIGYAICIIAFYIASYYNTIIAWALYYLISSLTDRLPWTSCTNSWNTGNCTNYFAQDNITWTLHSTSPAEEFYLRHVLQIHQSKGLQDLGTISWQLTLCIVLIFTVIYFSIWKGVKTSAKVVWVTATFPYIVLSVLLVRGATLPGAWRGVVFYLKPNWQKLLETGVWVDAAAQIFFSLGPGFGVLLAFASYNKFNNNCYQDALVTSVVNCMTSFVSGFVIFTVLGYMAEMRNEDVSEVAKDAGPSLLFITYAEAIANMPASTFFAIIFFLMLITLGLDSTFAGLEGVITAVLDEFPHIWAKRREWFVLIVVITCVLGSLLTLTSGGAYVVTLLEEYATGPAVLTVALIEAVAVSWFYGITQFCSDVKEMLGFSPGWFWRICWVAISPLFLLFIICSFLMSPPQLRLFQYNYPHWSIVLGYCIGMSSVICIPTYIIYRLISTPGTLKERIIKSITPETPTEIPCGDIRMNAV
With B2, the Cell surface expression entry in data set [1] is “*”. The “Expression (%) SERT = 100%” value in data set [2] is 39%.

B3: A169L: rat SERT single mutant A169L (protein)
chain: METTPLNSQKVLSECKDREDCQENGVLQKGVPTTADRAEPSQISNGYSAVPSTSAGDEASHSIPAATTTLVAEIRQGERETWGKKMDFLLSVIGYAVDLGNIWRFPYICYQNGGGAFLLPYTIMAIFGGIPLFYMELALGQYHRNGCISIWRKICPIFKGIGYAICIILFYIASYYNTIIAWALYYLISSLTDRLPWTSCTNSWNTGNCTNYFAQDNITWTLHSTSPAEEFYLRHVLQIHQSKGLQDLGTISWQLTLCIVLIFTVIYFSIWKGVKTSGKVVWVTATFPYIVLSVLLVRGATLPGAWRGVVFYLKPNWQKLLETGVWVDAAAQIFFSLGPGFGVLLAFASYNKFNNNCYQDALVTSVVNCMTSFVSGFVIFTVLGYMAEMRNEDVSEVAKDAGPSLLFITYAEAIANMPASTFFAIIFFLMLITLGLDSTFAGLEGVITAVLDEFPHIWAKRREWFVLIVVITCVLGSLLTLTSGGAYVVTLLEEYATGPAVLTVALIEAVAVSWFYGITQFCSDVKEMLGFSPGWFWRICWVAISPLFLLFIICSFLMSPPQLRLFQYNYPHWSIVLGYCIGMSSVICIPTYIIYRLISTPGTLKERIIKSITPETPTEIPCGDIRMNAV
Consider B3, for which the Cell surface expression entry in data set [1] is recorded as “**”. Moreover, the “Expression (%) SERT = 100%” value in data set [2] is recorded as 31%.

B4: G115A: rat SERT single mutant G115A (protein)
chain: METTPLNSQKVLSECKDREDCQENGVLQKGVPTTADRAEPSQISNGYSAVPSTSAGDEASHSIPAATTTLVAEIRQGERETWGKKMDFLLSVIGYAVDLGNIWRFPYICYQNGGAAFLLPYTIMAIFGGIPLFYMELALGQYHRNGCISIWRKICPIFKGIGYAICIIAFYIASYYNTIIAWALYYLISSLTDRLPWTSCTNSWNTGNCTNYFAQDNITWTLHSTSPAEEFYLRHVLQIHQSKGLQDLGTISWQLTLCIVLIFTVIYFSIWKGVKTSGKVVWVTATFPYIVLSVLLVRGATLPGAWRGVVFYLKPNWQKLLETGVWVDAAAQIFFSLGPGFGVLLAFASYNKFNNNCYQDALVTSVVNCMTSFVSGFVIFTVLGYMAEMRNEDVSEVAKDAGPSLLFITYAEAIANMPASTFFAIIFFLMLITLGLDSTFAGLEGVITAVLDEFPHIWAKRREWFVLIVVITCVLGSLLTLTSGGAYVVTLLEEYATGPAVLTVALIEAVAVSWFYGITQFCSDVKEMLGFSPGWFWRICWVAISPLFLLFIICSFLMSPPQLRLFQYNYPHWSIVLGYCIGMSSVICIPTYIIYRLISTPGTLKERIIKSITPETPTEIPCGDIRMNAV
In the case of B4, the Cell surface expression result in data set [1] is “***”. For the same molecule, the “Expression (%) SERT = 100%” value in data set [2] came out at 327%.

B5: L405A: rat SERT single mutant L405A (protein)
chain: METTPLNSQKVLSECKDREDCQENGVLQKGVPTTADRAEPSQISNGYSAVPSTSAGDEASHSIPAATTTLVAEIRQGERETWGKKMDFLLSVIGYAVDLGNIWRFPYICYQNGGGAFLLPYTIMAIFGGIPLFYMELALGQYHRNGCISIWRKICPIFKGIGYAICIIAFYIASYYNTIIAWALYYLISSLTDRLPWTSCTNSWNTGNCTNYFAQDNITWTLHSTSPAEEFYLRHVLQIHQSKGLQDLGTISWQLTLCIVLIFTVIYFSIWKGVKTSGKVVWVTATFPYIVLSVLLVRGATLPGAWRGVVFYLKPNWQKLLETGVWVDAAAQIFFSLGPGFGVLLAFASYNKFNNNCYQDALVTSVVNCMTSFVSGFVIFTVLGYMAEMRNEDVSEVAKDAGPSALFITYAEAIANMPASTFFAIIFFLMLITLGLDSTFAGLEGVITAVLDEFPHIWAKRREWFVLIVVITCVLGSLLTLTSGGAYVVTLLEEYATGPAVLTVALIEAVAVSWFYGITQFCSDVKEMLGFSPGWFWRICWVAISPLFLLFIICSFLMSPPQLRLFQYNYPHWSIVLGYCIGMSSVICIPTYIIYRLISTPGTLKERIIKSITPETPTEIPCGDIRMNAV
For B5, in data set [1], the Cell surface expression entry was “***”. Also, the “Expression (%) SERT = 100%” value in data set [2] is recorded as 543%.

B6: F311A: rat SERT single mutant F311A (protein)
chain: METTPLNSQKVLSECKDREDCQENGVLQKGVPTTADRAEPSQISNGYSAVPSTSAGDEASHSIPAATTTLVAEIRQGERETWGKKMDFLLSVIGYAVDLGNIWRFPYICYQNGGGAFLLPYTIMAIFGGIPLFYMELALGQYHRNGCISIWRKICPIFKGIGYAICIIAFYIASYYNTIIAWALYYLISSLTDRLPWTSCTNSWNTGNCTNYFAQDNITWTLHSTSPAEEFYLRHVLQIHQSKGLQDLGTISWQLTLCIVLIFTVIYFSIWKGVKTSGKVVWVTATFPYIVLSVLLVRGATLPGAWRGVVAYLKPNWQKLLETGVWVDAAAQIFFSLGPGFGVLLAFASYNKFNNNCYQDALVTSVVNCMTSFVSGFVIFTVLGYMAEMRNEDVSEVAKDAGPSLLFITYAEAIANMPASTFFAIIFFLMLITLGLDSTFAGLEGVITAVLDEFPHIWAKRREWFVLIVVITCVLGSLLTLTSGGAYVVTLLEEYATGPAVLTVALIEAVAVSWFYGITQFCSDVKEMLGFSPGWFWRICWVAISPLFLLFIICSFLMSPPQLRLFQYNYPHWSIVLGYCIGMSSVICIPTYIIYRLISTPGTLKERIIKSITPETPTEIPCGDIRMNAV
Consider B6, for which the Cell surface expression result in data set [1] is listed as “**”. In addition, in data set [2], the “Expression (%) SERT = 100%” value was 492%.

B7: L406A: rat SERT single mutant L406A (protein)
chain: METTPLNSQKVLSECKDREDCQENGVLQKGVPTTADRAEPSQISNGYSAVPSTSAGDEASHSIPAATTTLVAEIRQGERETWGKKMDFLLSVIGYAVDLGNIWRFPYICYQNGGGAFLLPYTIMAIFGGIPLFYMELALGQYHRNGCISIWRKICPIFKGIGYAICIIAFYIASYYNTIIAWALYYLISSLTDRLPWTSCTNSWNTGNCTNYFAQDNITWTLHSTSPAEEFYLRHVLQIHQSKGLQDLGTISWQLTLCIVLIFTVIYFSIWKGVKTSGKVVWVTATFPYIVLSVLLVRGATLPGAWRGVVFYLKPNWQKLLETGVWVDAAAQIFFSLGPGFGVLLAFASYNKFNNNCYQDALVTSVVNCMTSFVSGFVIFTVLGYMAEMRNEDVSEVAKDAGPSLAFITYAEAIANMPASTFFAIIFFLMLITLGLDSTFAGLEGVITAVLDEFPHIWAKRREWFVLIVVITCVLGSLLTLTSGGAYVVTLLEEYATGPAVLTVALIEAVAVSWFYGITQFCSDVKEMLGFSPGWFWRICWVAISPLFLLFIICSFLMSPPQLRLFQYNYPHWSIVLGYCIGMSSVICIPTYIIYRLISTPGTLKERIIKSITPETPTEIPCGDIRMNAV
Regarding B7, the Cell surface expression entry in data set [1] is recorded as “*”. For the same molecule, the “Expression (%) SERT = 100%” value in data set [2] was determined as 87%.

The record behind these values is patent US10544202B2, “Mutant proteins and methods for their production” (Medical Research Council, priority 2013, dated 2020).
